The record followed here is patent US20160185837A1 (Medimmune Limited, priority 2013, published 2016).

Holding throughout (format): cell-based
In assay [1] the target is T1, rat GLP-1 receptor (rGLP-1r) (Rattus norvegicus, UniProt P32301).
T1 construct: expressed in transfected cells; host or cells: HEK293s or CHO cells
T1 sequence (P32301 22-463): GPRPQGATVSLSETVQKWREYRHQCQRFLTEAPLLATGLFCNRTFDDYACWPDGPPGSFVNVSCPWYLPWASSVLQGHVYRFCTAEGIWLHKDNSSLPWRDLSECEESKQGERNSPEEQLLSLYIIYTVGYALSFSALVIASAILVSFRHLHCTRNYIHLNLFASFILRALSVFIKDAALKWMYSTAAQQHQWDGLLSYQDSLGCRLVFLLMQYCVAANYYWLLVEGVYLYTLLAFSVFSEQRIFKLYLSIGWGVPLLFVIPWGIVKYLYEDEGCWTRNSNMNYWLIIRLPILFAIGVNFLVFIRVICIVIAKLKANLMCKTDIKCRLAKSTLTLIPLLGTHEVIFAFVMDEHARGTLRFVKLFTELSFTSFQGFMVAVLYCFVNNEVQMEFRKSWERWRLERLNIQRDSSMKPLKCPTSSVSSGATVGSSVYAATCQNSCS
The assay can be described thus: BSA-cAMP assay, cells expressing rat GLP-1 receptor. In short, it runs like this:
(§1)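 EC50 is the midpoint of an unconstrained 4-parameter logistic fit to HTRF cAMP data, expressed as percent of maximal native agonist response, from two separate occasions. Rodent (mouse, rat) GLP-1R- or GIPR-expressing cells were incubated with compound 30 min at room temperature in 0.1% BSA medium, in duplicate.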
For orientation: Cyclic AMP is a second messenger, typically raised through Gs and lowered through Gi signalling.

The target of assay [2] is T2, human GLP-1 receptor (hGLP-1r) (Homo sapiens, UniProt P43220).
T2 construct: expressed in transfected cells
T2 sequence (P43220 24-463): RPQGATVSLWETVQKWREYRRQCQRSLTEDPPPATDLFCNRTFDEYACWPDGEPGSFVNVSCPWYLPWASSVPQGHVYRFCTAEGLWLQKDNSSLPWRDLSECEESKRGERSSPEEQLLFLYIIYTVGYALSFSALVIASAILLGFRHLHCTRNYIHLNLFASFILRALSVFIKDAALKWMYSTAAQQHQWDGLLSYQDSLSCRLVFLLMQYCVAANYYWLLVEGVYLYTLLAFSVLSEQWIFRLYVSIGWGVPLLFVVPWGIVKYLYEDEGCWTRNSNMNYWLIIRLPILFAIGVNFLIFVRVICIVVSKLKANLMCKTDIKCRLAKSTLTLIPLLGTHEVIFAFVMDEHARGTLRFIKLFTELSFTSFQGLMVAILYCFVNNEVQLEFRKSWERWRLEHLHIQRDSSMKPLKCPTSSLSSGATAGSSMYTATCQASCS
The assay can be described thus: BSA-cAMP assay, cells expressing human GLP-1 receptor. In short, it runs like this: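 EC50 came from an unconstrained 4-parameter logistic fit of HTRF cAMP data expressed as percent of maximal native agonist activation, tested on two occasions. Thawed receptor-expressing cells (hGLP-1r, hGIPr at 0.5×10^5 cells/ml) treated 30 min at room temperature in 0.1% BSA-containing medium; two distinct hGIPr lines.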

The target in assay [3] is T3, rat GIP receptor (rGIPr) (Rattus norvegicus, UniProt P43219).
T3 construct: expressed in transfected cells; host or cells: HEK293s or CHO cells
T3 sequence (P43219 19-455): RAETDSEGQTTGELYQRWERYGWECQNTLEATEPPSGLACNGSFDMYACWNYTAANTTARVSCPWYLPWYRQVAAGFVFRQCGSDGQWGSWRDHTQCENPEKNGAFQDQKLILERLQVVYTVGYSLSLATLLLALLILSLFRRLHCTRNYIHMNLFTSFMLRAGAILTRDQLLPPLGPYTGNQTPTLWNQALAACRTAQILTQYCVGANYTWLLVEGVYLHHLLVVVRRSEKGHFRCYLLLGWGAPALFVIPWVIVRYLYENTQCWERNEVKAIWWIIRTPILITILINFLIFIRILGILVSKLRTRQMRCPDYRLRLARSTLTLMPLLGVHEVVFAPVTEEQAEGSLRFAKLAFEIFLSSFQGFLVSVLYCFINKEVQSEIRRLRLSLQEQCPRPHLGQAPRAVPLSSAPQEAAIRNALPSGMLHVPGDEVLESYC
Nature of the assay: BSA-cAMP assay, cells expressing rat GIP receptor. In short, it runs like this:
as §1

Assay [4] concerns the target T4, mouse GLP-1 receptor (mGLP-1r) (Mus musculus, UniProt O35659).
T4 construct: expressed in transfected cells; host or cells: HEK293s or CHO cells
T4 sequence (O35659 22-463): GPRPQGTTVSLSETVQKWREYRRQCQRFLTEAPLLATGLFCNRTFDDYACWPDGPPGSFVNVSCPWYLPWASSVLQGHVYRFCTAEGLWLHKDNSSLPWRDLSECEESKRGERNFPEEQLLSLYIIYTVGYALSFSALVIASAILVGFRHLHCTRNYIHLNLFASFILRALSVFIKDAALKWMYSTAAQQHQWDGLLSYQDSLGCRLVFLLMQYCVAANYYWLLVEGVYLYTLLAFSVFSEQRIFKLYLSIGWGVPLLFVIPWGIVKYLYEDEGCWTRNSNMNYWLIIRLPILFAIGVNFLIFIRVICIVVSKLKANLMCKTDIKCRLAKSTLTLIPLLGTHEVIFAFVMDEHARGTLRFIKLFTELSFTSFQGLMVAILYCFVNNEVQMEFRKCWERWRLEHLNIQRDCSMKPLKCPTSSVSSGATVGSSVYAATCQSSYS
Nature of the assay: BSA-cAMP assay, cells expressing mouse GLP-1 receptor. In short, it runs like this: as §1

In assay [5] the target is T5, mouse GIP receptor (mGIPr) (Mus musculus, UniProt Q0P543).
T5 construct: expressed in transfected cells; host or cells: HEK293s or CHO cells
T5 sequence (Q0P543 19-460): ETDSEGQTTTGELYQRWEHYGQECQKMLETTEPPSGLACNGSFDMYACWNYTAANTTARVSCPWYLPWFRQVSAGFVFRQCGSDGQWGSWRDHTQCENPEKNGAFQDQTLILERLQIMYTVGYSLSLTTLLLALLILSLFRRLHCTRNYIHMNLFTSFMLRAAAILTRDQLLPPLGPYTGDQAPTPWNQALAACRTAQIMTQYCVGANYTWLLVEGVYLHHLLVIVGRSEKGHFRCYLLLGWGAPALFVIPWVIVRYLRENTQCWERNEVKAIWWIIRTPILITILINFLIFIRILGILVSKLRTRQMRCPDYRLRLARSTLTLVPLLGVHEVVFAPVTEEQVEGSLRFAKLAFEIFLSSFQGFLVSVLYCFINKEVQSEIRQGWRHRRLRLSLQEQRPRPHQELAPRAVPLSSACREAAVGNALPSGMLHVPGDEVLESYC
Nature of the assay: BSA-cAMP assay, cells expressing mouse GIP receptor. In short, it runs like this:
as §1

B1: IP088: Fc fusion, IgG1-TM, SEQ ID NO:105; agonist peptide YSEGTFTSDYSKLLEEEAVRLFIEWLVKGP (SEQ ID NO:15) (protein)
chain: YSEGTFTSDYSKLLEEEAVRLFIEWLVKGPAAAGGSGSTASSGSGSATGGGGAATHTCPPCPAPEF
modifications: also: Fc fusion, IgG1-TM
Consider B1, for which the “potency for GLP-1r, in words” value in assay [1] (rat receptor), in assay [2] (human receptor) and in assay [4] (mouse receptor) was “high potency” in each case. Besides, the entries for the “potency for GIPr, in words” value in assay [3] (rat receptor) and in assay [5] (mouse receptor) were “high potencies” and “relatively lower potency”, respectively.

B2: IP367 (protein)
chain: YSEGTFTSDYRILKERQAIDEFIAWLLKGGAAAGGSGSTASSGSGSATGGGGAATHTCPPC
The EC50 is the concentration giving half of the maximal effect. For B2, the EC50 amounted to 8 nM in assay [1] (Batch 1, BSA-cAMP assay, read-out: rGLP1r cAMP activity EC50); 4.4 nM in assay [2] (Batch 1, BSA-cAMP assay, read-out: hGLP1r cAMP activity EC50); 0.0099 nM in assay [3] (Batch 1, BSA-cAMP assay, read-out: rGIPr cAMP activity EC50); 390 nM in assay [4] (Batch 1, BSA-cAMP assay, read-out: mGLP1r cAMP activity EC50); 0.031 nM in assay [5] (Batch 1, BSA-cAMP assay, read-out: mGIPr cAMP activity EC50).
